Reference: patent US20160024487

Tests used:
[1] = test system: 73k-HEP-[N]-FX ins[194]>[DFLAEGGGVR]-HPC4
[2] = test system: At least 20 sequences selected from the QF-substrate library
[3] = test system: 40k-HEP-[N]-FX ins[194]>[DFLAEGGGVR]-HPC4
[4] = test system: FX ins[194]>[DFLAEGGGVR]-HPC4
[5] = test system: FX ins[194]>[DFLAEGGGPR]-HPC4
[6] = test system: 21k-HEP-[N]-FX ins[194]>[DFLAEGGGVR]-HPC4
[7] = test system: FX [191-194]>[LTPR]-HPC4
[8] = test system: FpA_P quenched fluorescence substrate Lys(Dnp)-DFLAEGGGPRIVGG-Lys(Abz)
[9] = biological target: human α-thrombin (FIIa) (UniProt P00734)
[10] = test system: Lys(Dnp)-ATNATAVPRIVGG-Lys(Abz)
[11] = test system: Lys(Dnp)-DNEEGFFSARIVGG-Lys(Abz)
[12] = test system: Lys(Dnp)-ATNATDHPRIVGG-Lys(Abz)
[13] = test system: Lys(Dnp)-ATNATHNPRIVGG-Lys(Abz)
[14] = test system: Lys(Dnp)-ATNATAMPRIVGG-Lys(Abz)
[15] = test system: Lys(Dnp)-ATNATDKPRIVGG-Lys(Abz)
[16] = test system: Lys(Dnp)-ATNATNGPRIVGG-Lys(Abz)
[17] = test system: Lys(Dnp)-ATNATNDPRIVGG-Lys(Abz)
[18] = test system: Lys(Dnp)-DQVTVAMTPRIVGG-Lys(Abz)
[19] = test system: Lys(Dnp)-ATNATDFPRIVGG-Lys(Abz)
[20] = test system: Lys(Dnp)-DFLAEGGGPRIVGG-Lys(Abz)
[21] = test system: Lys(Dnp)-ATNATQDPRIVGG-Lys(Abz)
[22] = test system: Lys(Dnp)-ATNATDEPRIVGG-Lys(Abz)
[23] = test system: Lys(Dnp)-ATNATPFPRIVGG-Lys(Abz)
[24] = test system: Lys(Dnp)-EDSDRAIEGRIVGG-Lys(Abz)
[25] = test system: Lys(Dnp)-ATNATTDPRIVGG-Lys(Abz)
[26] = test system: Lys(Dnp)-ATNATRIPRIVGG-Lys(Abz)
[27] = test system: Lys(Dnp)-ATNATQPPRIVGG-Lys(Abz)
[28] = test system: Lys(Dnp)-ATNATINPRIVGG-Lys(Abz)
[29] = test system: Lys(Dnp)-ATNATEAPRIVGG-Lys(Abz)
[30] = test system: Lys(Dnp)-ATNATQQPRIVGG-Lys(Abz)
[31] = test system: PAR 1 control substrate sequence [Lys(Dnp)-ATNATLDPRIVGG-Lys(Abz)]
[32] = test system: Lys(Dnp)-ATNATSSPRIVGG-Lys(Abz)
[33] = test system: Lys(Dnp)-ATNATKMPRIVGG-Lys(Abz)
[34] = test system: Lys(Dnp)-NESTTKIKPRIVGG-Lys(Abz)
[35] = test system: Lys(Dnp)-ATNATLVPRIVGG-Lys(Abz)
[36] = test system: Lys(Dnp)-ATNATHGPRIVGG-Lys(Abz)
[37] = test system: Lys(Dnp)-ATNATWPPRIVGG-Lys(Abz)
[38] = test system: Lys(Dnp)-ATNATEPPRIVGG-Lys(Abz)
[39] = test system: Lys(Dnp)-ATNATDIPRIVGG-Lys(Abz)
[40] = test system: Lys(Dnp)-ATNATPDPRIVGG-Lys(Abz)
[41] = test system: Lys(Dnp)-ATNATARPRIVGG-Lys(Abz)
[42] = test system: Lys(Dnp)-ATNATIDPRIVGG-Lys(Abz)
[43] = test system: Lys(Dnp)-ATNATKTPRIVGG-Lys(Abz)
[44] = test system: Lys(Dnp)-ATNATANPRIVGG-Lys(Abz)
[45] = test system: Lys(Dnp)-ATNATFIPRIVGG-Lys(Abz)
[46] = test system: Lys(Dnp)-ATNATNPPRIVGG-Lys(Abz)
[47] = test system: Lys(Dnp)-ATNATTEPRIVGG-Lys(Abz)
[48] = test system: Lys(Dnp)-ATNATFWPRIVGG-Lys(Abz)
[49] = test system: Lys(Dnp)-ATNATPAPRIVGG-Lys(Abz)
[50] = test system: Lys(Dnp)-ATNATEVPRIVGG-Lys(Abz)
[51] = test system: Lys(Dnp)-ATNATVSPRIVGG-Lys(Abz)
[52] = test system: Lys(Dnp)-ATNATTNPRIVGG-Lys(Abz)
[53] = test system: Lys(Dnp)-ATNATKHPRIVGG-Lys(Abz)
[54] = test system: Lys(Dnp)-ATNATHHPRIVGG-Lys(Abz)
[55] = test system: Lys(Dnp)-ATNATFQPRIVGG-Lys(Abz)
[56] = test system: Lys(Dnp)-ATNATQNPRIVGG-Lys(Abz)
[57] = test system: Lys(Dnp)-SEYQTFFNPRIVGG-Lys(Abz)
[58] = test system: Lys(Dnp)-ATNATYKPRIVGG-Lys(Abz)
[59] = test system: Lys(Dnp)-ATNATGNPRIVGG-Lys(Abz)
[60] = test system: Lys(Dnp)-ATNATKYPRIVGG-Lys(Abz)
[61] = test system: Lys(Dnp)-ATNATVFPRIVGG-Lys(Abz)
[62] = test system: Lys(Dnp)-ATNATHFPRIVGG-Lys(Abz)
[63] = test system: Lys(Dnp)-ATNATVLPRIVGG-Lys(Abz)

Chain of FX ins[194]>[DFLAEGGGVR]-HPC4 (chain, as listed by the source): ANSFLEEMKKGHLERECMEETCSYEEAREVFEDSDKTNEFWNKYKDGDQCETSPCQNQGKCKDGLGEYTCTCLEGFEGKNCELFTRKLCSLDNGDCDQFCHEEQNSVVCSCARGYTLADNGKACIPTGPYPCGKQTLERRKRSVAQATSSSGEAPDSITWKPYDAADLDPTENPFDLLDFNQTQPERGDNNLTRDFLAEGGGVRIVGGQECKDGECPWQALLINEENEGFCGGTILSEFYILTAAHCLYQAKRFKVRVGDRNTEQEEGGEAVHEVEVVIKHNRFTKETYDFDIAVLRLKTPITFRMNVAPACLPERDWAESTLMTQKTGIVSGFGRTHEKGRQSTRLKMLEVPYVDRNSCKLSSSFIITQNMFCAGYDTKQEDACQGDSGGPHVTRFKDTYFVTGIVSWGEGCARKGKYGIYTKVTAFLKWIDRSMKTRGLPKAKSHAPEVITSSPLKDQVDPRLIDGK
Chain of FX [191-194]>[LTPR]-HPC4 (chain, as listed by the source): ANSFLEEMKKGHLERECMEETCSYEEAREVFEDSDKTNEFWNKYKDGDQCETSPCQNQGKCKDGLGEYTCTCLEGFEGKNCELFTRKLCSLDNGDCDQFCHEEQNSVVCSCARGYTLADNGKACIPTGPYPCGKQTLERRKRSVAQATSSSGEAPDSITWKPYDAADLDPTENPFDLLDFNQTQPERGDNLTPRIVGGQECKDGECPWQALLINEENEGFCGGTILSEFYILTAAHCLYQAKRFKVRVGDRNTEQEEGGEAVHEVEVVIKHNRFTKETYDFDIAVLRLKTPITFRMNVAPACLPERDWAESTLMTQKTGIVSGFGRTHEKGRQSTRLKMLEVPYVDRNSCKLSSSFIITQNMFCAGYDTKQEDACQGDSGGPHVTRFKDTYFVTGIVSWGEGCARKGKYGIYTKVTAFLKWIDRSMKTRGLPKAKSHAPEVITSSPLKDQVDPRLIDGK
Chain of FX ins[194]>[DFLAEGGGPR]-HPC4 (chain, as listed by the source): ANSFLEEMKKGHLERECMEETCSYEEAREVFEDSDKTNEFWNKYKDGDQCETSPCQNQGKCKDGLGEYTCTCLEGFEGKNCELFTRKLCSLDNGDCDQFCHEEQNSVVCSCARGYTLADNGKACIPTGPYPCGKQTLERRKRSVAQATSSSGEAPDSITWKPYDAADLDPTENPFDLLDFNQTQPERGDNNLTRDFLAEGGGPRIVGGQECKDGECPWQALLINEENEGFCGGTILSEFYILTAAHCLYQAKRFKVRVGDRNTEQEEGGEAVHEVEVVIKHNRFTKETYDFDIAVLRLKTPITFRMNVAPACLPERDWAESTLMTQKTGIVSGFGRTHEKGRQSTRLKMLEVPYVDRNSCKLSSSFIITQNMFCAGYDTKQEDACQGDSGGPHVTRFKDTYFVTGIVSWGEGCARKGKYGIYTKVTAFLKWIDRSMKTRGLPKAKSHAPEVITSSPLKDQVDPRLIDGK

With human α-thrombin (FIIa) the “kinetic parameters (kcat, KM and kcat/KM) of activation, compared with the unconjugated molecule” value [1] was “there is no significant effect of hepylation on the observed kinetic parameters for the tested molecule”, the “cleavage rate (kcat/KM) by thrombin, fold improvement over the parent PAR-1 sequence” value [2] was >20-fold improved cleavage rates (kcat/KM) over the parent PAR-1 sequence and the “kinetic parameters (kcat, KM and kcat/KM) of activation, compared with the unconjugated molecule” value [3] was “there is no significant effect of hepylation on the observed kinetic parameters for the tested molecule”. The “kcat of activation by α-thrombin, relative to FX [191-194]>[MTPR]-HPC4” value [4] was “each of which have 5-10 fold higher kcat values than FX [191-194]>[MTPR]-HPC4”, the “activation rate (kcat/KM) by α-thrombin, relative to FX ins[194]>[DFLAEGGGVR]-HPC4” value [5] was “This activation rate is 10× the observed activation rate for a variant having the unmodified FpA sequence (FX ins[194]>[DFLAEGGGVR]-HPC4)” and the “kinetic parameters (kcat, KM and kcat/KM) of activation, compared with the unconjugated molecule” value [6] was “there is no significant effect of hepylation on the observed kinetic parameters for the tested molecule”. The “kcat of activation by α-thrombin, relative to FX [191-194]>[MTPR]-HPC4” value [7] was “each of which have 5-10 fold higher kcat values than FX [191-194]>[MTPR]-HPC4” and the “cleavage rate (kcat/KM) by thrombin” value [8] was “The most improved natural substrate was shown to be the FpA_P sequence, which has a proline residue at X2 instead of the naturally occurring valine”.

With FX-HPC4 the kcat/KM [9] was “No Activity”.

In the case of Human plasma purified α-thrombin, the FIIa kcat/KM [10] is reported as 9700 M⁻¹ s⁻¹, the kcat/KM [10] is reported as 9700 M⁻¹ s⁻¹ and the kcat/KM [11] is reported as 300 M⁻¹ s⁻¹. It also gave a kcat/KM [12] of 1000 M⁻¹ s⁻¹, a kcat/KM [13] of 800 M⁻¹ s⁻¹ and a kcat/KM [14] of 9000 M⁻¹ s⁻¹. For the same substance, the kcat/KM [15] was 10 M⁻¹ s⁻¹, the kcat/KM [16] was 500 M⁻¹ s⁻¹ and the kcat/KM [17] was 3 M⁻¹ s⁻¹. The kcat/KM [18] was 30000 M⁻¹ s⁻¹, the kcat/KM [19] was 600 M⁻¹ s⁻¹ and the kcat/KM [20] was 40000 M⁻¹ s⁻¹. For the same substance, the kcat/KM [21] was 500 M⁻¹ s⁻¹, the kcat/KM [22] was 0.0004 M⁻¹ s⁻¹ and the FIIa kcat/KM [23] was 9000 M⁻¹ s⁻¹. It also gave a kcat/KM [23] of 9000 M⁻¹ s⁻¹, a kcat/KM [24] of 0 M⁻¹ s⁻¹ and a kcat/KM [25] of 1000 M⁻¹ s⁻¹. The kcat/KM [26] was 1000 M⁻¹ s⁻¹, the kcat/KM [27] was 0 M⁻¹ s⁻¹ and the kcat/KM [28] was 10000 M⁻¹ s⁻¹. It also gave a kcat/KM [29] of 400 M⁻¹ s⁻¹, a kcat/KM [30] of 10000 M⁻¹ s⁻¹ and a kcat/KM [31] of 3000 M⁻¹ s⁻¹. It also gave a kcat/KM [32] of 1000 M⁻¹ s⁻¹, a kcat/KM [33] of 800 M⁻¹ s⁻¹ and a kcat/KM [34] of 20000 M⁻¹ s⁻¹. The FIIa kcat/KM [35] was 30000 M⁻¹ s⁻¹, the kcat/KM [35] was 30000 M⁻¹ s⁻¹ and the kcat/KM [36] was 1000 M⁻¹ s⁻¹. For the same substance, the FIIa kcat/KM [37] was 9700 M⁻¹ s⁻¹, the kcat/KM [37] was 9700 M⁻¹ s⁻¹ and the kcat/KM [38] was 2 M⁻¹ s⁻¹. It also gave a kcat/KM [39] of 30 M⁻¹ s⁻¹, a kcat/KM [40] of 2000 M⁻¹ s⁻¹ and an FIIa kcat/KM [41] of 20000 M⁻¹ s⁻¹. It also gave a kcat/KM [41] of 20000 M⁻¹ s⁻¹, a kcat/KM [42] of 2000 M⁻¹ s⁻¹ and a kcat/KM [43] of 610 M⁻¹ s⁻¹. The kcat/KM [44] was 4000 M⁻¹ s⁻¹, the kcat/KM [45] was 7000 M⁻¹ s⁻¹ and the kcat/KM [46] was 9 M⁻¹ s⁻¹. For the same substance, the kcat/KM [47] was 700 M⁻¹ s⁻¹, the FIIa kcat/KM [48] was 20000 M⁻¹ s⁻¹ and the kcat/KM [48] was 20000 M⁻¹ s⁻¹. It also gave a kcat/KM [49] of 7000 M⁻¹ s⁻¹, a kcat/KM [50] of 200 M⁻¹ s⁻¹ and an FIIa kcat/KM [51] of 7600 M⁻¹ s⁻¹. For the same substance, the kcat/KM [51] was 7600 M⁻¹ s⁻¹, the kcat/KM [52] was 600 M⁻¹ s⁻¹ and the kcat/KM [53] was 900 M⁻¹ s⁻¹. For the same substance, the kcat/KM [54] was 2000 M⁻¹ s⁻¹, the FIIa kcat/KM [55] was 30000 M⁻¹ s⁻¹ and the kcat/KM [55] was 30000 M⁻¹ s⁻¹. The kcat/KM [56] was 2000 M⁻¹ s⁻¹, the kcat/KM [57] was 20000 M⁻¹ s⁻¹ and the FIIa kcat/KM [58] was 5000 M⁻¹ s⁻¹. For the same substance, the kcat/KM [58] was 5000 M⁻¹ s⁻¹, the kcat/KM [59] was 700 M⁻¹ s⁻¹ and the kcat/KM [60] was 700 M⁻¹ s⁻¹. For the same substance, the FIIa kcat/KM [61] was 8400 M⁻¹ s⁻¹, the kcat/KM [61] was 8400 M⁻¹ s⁻¹ and the kcat/KM [62] was 1000 M⁻¹ s⁻¹. The kcat/KM [63] was 5000 M⁻¹ s⁻¹.
